# Measurements: article PMC10713829 (Nature Communications, 2023)
# Peptide text beside a SMILES is read from it.
# Tests used:
# HLA-A*01:01/hβ2m [1] = target: T1, HLA-A*01:01/hβ2m (Homo sapiens, UniProt P04439, /R68K/S129P/T187R/V100A/V91M/W191G); experiment: Fluorescence anisotropy competition with TAMRA-NRAS^Q61K; type: binding
# T1 construct: BirA substrate peptide (biotinylation tag, […]), seen only in the HDX-MS peptide map (C); made in house
# Protocol: TAMRA association with K61 was modeled to not disrupt interaction with the HLA-A*01:01 groove because K61 is solvent-exposed. […] NRAS peptides were prepared by chemical synthesis (GenScript, Piscataway, USA). […] Data was recorded on a SpectraMax iD5 plate reader with an excitation filter of λex = 531 nm and an emission filter of λem = 595 nm with an PMT gain set to high, an integration time of 1200 msec and read height 0.5 mm. Each experiment was performed in triplicate (n = 3) and is representative of at least two independent experiments. Experimental values were subtracted from background r values obtained from incubation of TAMRA-NRAS^Q61K alone. […] IC50 values were obtain by fitting to a simple single-site (one phase association) model with DynaFit (http://www.biokin.com/dynafit).
# HLA-A*01:01/hβ2m [2] = target: T2, HLA-A*01:01/hβ2m (Homo sapiens, UniProt P04439, A114D/A174V/A182V/D101N/D185E/E176A/E190D/L180R/Q94H/R68K/S129P/T187R/V100A/V91M/W191G); experiment: Hydrogen-deuterium exchange mass spectrometry (HDX-MS) of empty and peptide-loaded complexes; details: for Average % deuterium uptake: 600s
# T2 construct: BirA substrate peptide (biotinylation tag, […]), seen only in the HDX-MS peptide map (C); made in house
# [3] = fragment ASGSHSMRY 2-10, charge 2
# [4] = fragment ASGSHSMRY 2-10, charge 3
# [5] = fragment ASGSHSMRYF 2-11, charge 2
"% deuterium uptake of peptide fragments corresponding to the NRAS peptide (HLA-A*01:01/hβ2m [2]; HDX-MS of peptide/HLA-A*01:01/hβ2m, back-exchange corrected, pD 6.5, 25 °C, up to 600 s, biological triplicates)","Average % deuterium uptake (HLA-A*01:01/hβ2m [2]; fragment ASGSHSMRY 2-10, charge 1)",Average % deuterium uptake (HLA-A*01:01/hβ2m [2]; [3]),Average % deuterium uptake (HLA-A*01:01/hβ2m [2]; [4]),Average % deuterium uptake (HLA-A*01:01/hβ2m [2]; [5]),"deuterium uptake of the HLA-A*01:01 α2-1 helix (residues 139–155) in the peptide-loaded complex (HLA-A*01:01/hβ2m [2]; HDX-MS, back-exchange corrected, pD 6.5, 25 °C, comparison among peptide-loaded samples)",Compound,IC50 (HLA-A*01:01/hβ2m [1])
approx. 75%,85.9593%,85.2218%,85.2836%,76.8148%,–,NRAS^Q61H: NRAS55-64 neoepitope peptide with Q61H mutation (ILDTAGHEEY),–
–,–,83.2364%,83.3198%,78.2896%,–,NRAS^Q61R: NRAS55-64 neoepitope peptide with Q61R mutation (ILDTAGREEY),–

# Further lines, the compound ahead of its results:
Compound,"% deuterium uptake of peptide fragments corresponding to the NRAS peptide (HLA-A*01:01/hβ2m [2]; HDX-MS of peptide/HLA-A*01:01/hβ2m, back-exchange corrected, pD 6.5, 25 °C, up to 600 s, biological triplicates)","Average % deuterium uptake (HLA-A*01:01/hβ2m [2]; fragment ASGSHSMRY 2-10, charge 1)",Average % deuterium uptake (HLA-A*01:01/hβ2m [2]; [3]),Average % deuterium uptake (HLA-A*01:01/hβ2m [2]; [4]),Average % deuterium uptake (HLA-A*01:01/hβ2m [2]; [5]),"deuterium uptake of the HLA-A*01:01 α2-1 helix (residues 139–155) in the peptide-loaded complex (HLA-A*01:01/hβ2m [2]; HDX-MS, back-exchange corrected, pD 6.5, 25 °C, comparison among peptide-loaded samples)",IC50 (HLA-A*01:01/hβ2m [1])
CC[C@H](C)[C@H](N)C(=O)N[C@@H](CC(C)C)C(=O)N[C@@H](CC(=O)O)C(=O)N[C@H](C(=O)N[C@@H](C)C(=O)NCC(=O)N[C@@H](CCCCN)C(=O)N[C@@H](CCC(=O)O)C(=O)N[C@@H](CCC(=O)O)C(=O)N[C@@H](Cc1ccc(O)cc1)C(=O)O)[C@@H](C)O [NRAS^Q61K],–,–,–,–,–,–,260 nM
CC[C@H](C)[C@H](N)C(=O)N[C@@H](CC(C)C)C(=O)N[C@@H](CC(=O)O)C(=O)N[C@H](C(=O)N[C@@H](C)C(=O)NCC(=O)N[C@@H](CCC(N)=O)C(=O)N[C@@H](CCC(=O)O)C(=O)N[C@@H](CCC(=O)O)C(=O)N[C@@H](Cc1ccc(O)cc1)C(=O)O)[C@@H](C)O [Q61] (H-ILDTAGQEEY-OH),–,–,–,–,–,–,278 ± 32 nM
NRAS^Q61L: NRAS55-64 neoepitope peptide with Q61L mutation (ILDTAGLEEY),–,–,83.6219%,84.5527%,77.0018%,significantly reduced deuterium uptake,–
